Target: Recombinant human SEMA3A Fc chimera (R&D Systems) (human) (UniProt Q14563)
Assay: plate saturation binding; trap coated, SEMA3A-FC titrated, HRP anti-human IgG chemiluminescence, non-linear fit

Molecule	Kd [nM]
Trap M (Human, NRP1-His-Δb2c-short) (receptor) FRNDKCGDTIKIESPGYLTSPGYPHSYHPSEKCEWLIQAPDPYQRIMINFNPHFDLEDRDCKYDYVEVFDGENENGHFRGKFCGKIAPPPVVSSGPFLFIKFVSDYETHGAGFSIRYELFKRGPECSQNYTTPSGVIKSPGFPEKYPNSLECTYIVFAPKMSEIILEFESFDLEPDSNPPGGMFCRYDRLEIWDGFPDVGPHIGRYCGQKTPGRIRSSSGILSMVFYTDSAIAKEGFSANYSVLQSSVSEDFKCMEALGMESGEIHSDQITASSQYSTNWSAERSRLNYPENGWTPGEDSYREWIQVDLGLLRFVTAVGTQGAISKETKKKYYVKTYKIDVSSNGEDWITIKEGNKPVLFQGNTNPTDVVVAVFPKPLITRFVRIKPATWETGISMRFEVYGCRSGSKENLYFQGHHHHHH	0.95
Trap Z (Human, "full" extracellular domain NRP1-His, VEGF165-Low, E319K/D320K mutations) (receptor) FRNDKCGDTIKIESPGYLTSPGYPHSYHPSEKCEWLIQAPDPYQRIMINFNPHFDLEDRDCKYDYVEVFDGENENGHFRGKFCGKIAPPPVVSSGPFLFIKFVSDYETHGAGFSIRYELFKRGPECSQNYTTPSGVIKSPGFPEKYPNSLECTYIVFAPKMSEIILEFESFDLEPDSNPPGGMFCRYDRLEIWDGFPDVGPHIGRYCGQKTPGRIRSSSGILSMVFYTDSAIAKEGFSANYSVLQSSVSEDFKCMEALGMESGEIHSDQITASSQYSTNWSAERSRLNYPENGWTPGKKSYREWIQVDLGLLRFVTAVGTQGAISKETKKKYYVKTYKIDVSSNGEDWITIKEGNKPVLFQGNTNPTDVVVAVFPKPLITRFVRIKPATWETGISMRFEVYGCKITDYPCSGMLGMVSGLISDSQITSSNQGDRNWMPENIRLVTSRSGWALPPAPHSYINEWLQIDLGEEKIVRGIIIQGGKHRENKVFMRKFKIGYSNNGSDWKMIMDDSKRKAKSFEGNNNYDTPELRTFPALSTRFIRIYPERATHGGLGLRMELLGCEVEAPTAGPTTPNGNLVDECDDDQANCHSGTGDDFQLTGGTTVLATEKPTVIDSTIQSEFPTYGFNCEFGWGSHKTFCHWEHDNHVQLKWSVLTSKTGPIQDHTGDGNFIYSQADENQKGKVARLVSPVVYSQNSAHCMTFWYHMSGSHVGTLRVKLRYQKPEEYDQLVWMAIGHQGDHWKEGRVLLHKSLKLYQVIFEGEIGKGNLGGIAVDDISINNHISQEDCAKPADLDKKNPEIKIDETGSTPGYEGEGEGDKNISRKPGNVLKTLDPRSGSKENLYFQGHHHHHH	4.44
Trap R (Human, NRP1-His-Δc-VEGF low) (receptor) FRNDKCGDTIKIESPGYLTSPGYPHSYHPSEKCEWLIQAPDPYQRIMINFNPHFDLEDRDCKYDYVEVFDGENENGHFRGKFCGKIAPPPVVSSGPFLFIKFVSDYETHGAGFSIRYELFKRGPECSQNYTTPSGVIKSPGFPEKYPNSLECTYIVFAPKMSEIILEFESFDLEPDSNPPGGMFCRYDRLEIWDGFPDVGPHIGRYCGQKTPGRIRSSSGILSMVFYTDSAIAKEGFSANYSVLQSSVSEDFKCMEALGMESGEIHSDQITASSQASTNWSAERSRLNYPENGWTPGEDSYREWIQVDLGLLRFVTAVGTQGAISKETKKKYYVKTYKIDVSSNGEDWITIKEGNKPVLFQGNTNPTDVVVAVFPKPLITRFVRIKPATWETGISMRFEVYGCKITDYPCSGMLGMVSGLISDSQITSSNQGDRNWMPENIRLVTSRSGWALPPAPHSYINEWLQIDLGEEKIVRGIIIQGGKHRENKVFMRKFKIGYSNNGSDWKMIMDDSKRKAKSFEGNNNYDTPELRTFPALSTRFIRIYPERATHGGLGLRMELLGCEVEAPTAGPTTPNGNLVDECDDDQANCHSGTGDDFQLTGGTTVLATEKPTVIDSTIQSEFPTYGFNCEFGWGSHKTFCHWEHDNHVQLKWSVLTSKTGPIQDHTGDGNFIYSQADENQKGKVARLVSPVVYSQNSAHCMTFWYHMSGSHVGTLRVKLRYQKPEEYDQLVWMAIGHQGDHWKEGRVLLHKSLKLYQVIFEGEIGKGNLGGIAVDDISINNHISQEDCAKPADLDKKNPEIKIDETGSTPGYEGEGEGDKNISRKPGNVLKTLDPRSGSKENLYFQGHHHHHH	6.15

Continued by falling Kd, values first:

Kd [nM]	Molecule
4	Trap AC (Human, "full" extracellular domain NRP1-His-VEGF-low, D320K mutation) (receptor) FRNDKCGDTIKIESPGYLTSPGYPHSYHPSEKCEWLIQAPDPYQRIMINFNPHFDLEDRDCKYDYVEVFDGENENGHFRGKFCGKIAPPPVVSSGPFLFIKFVSDYETHGAGFSIRYELFKRGPECSQNYTTPSGVIKSPGFPEKYPNSLECTYIVFAPKMSEIILEFESFDLEPDSNPPGGMFCRYDRLEIWDGFPDVGPHIGRYCGQKTPGRIRSSSGILSMVFYTDSAIAKEGFSANYSVLQSSVSEDFKCMEALGMESGEIHSDQITASSQYSTNWSAERSRLNYPENGWTPGEKSYREWIQVDLGLLRFVTAVGTQGAISKETKKKYYVKTYKIDVSSNGEDWITIKEGNKPVLFQGNTNPTDVVVAVFPKPLITRFVRIKPATWETGISMRFEVYGCKITDYPCSGMLGMVSGLISDSQITSSNQGDRNWMPENIRLVTSRSGWALPPAPHSYINEWLQIDLGEEKIVRGIIIQGGKHRENKVFMRKFKIGYSNNGSDWKMIMDDSKRKAKSFEGNNNYDTPELRTFPALSTRFIRIYPERATHGGLGLRMELLGCEVEAPTAGPTTPNGNLVDECDDDQANCHSGTGDDFQLTGGTTVLATEKPTVIDSTIQSEFPTYGFNCEFGWGSHKTFCHWEHDNHVQLKWSVLTSKTGPIQDHTGDGNFIYSQADENQKGKVARLVSPVVYSQNSAHCMTFWYHMSGSHVGTLRVKLRYQKPEEYDQLVWMAIGHQGDHWKEGRVLLHKSLKLYQVIFEGEIGKGNLGGIAVDDISINNHISQEDCAKPADLDKKNPEIKIDETGSTPGYEGEGEGDKNISRKPGNVLKTLDPRSGSKENLYFQGHHHHHH
1.05	Trap O (Human, NRP1-His-Δc-short) (from UniProt O14786 22-583) (receptor)
0.8	Trap G (Human, "full" extracellular domain NRP1-His) (from UniProt O14786 22-856) (receptor)
